Patent US20040219615A1 (YEDA RESEARCH AND DEVELOPMENT, published 2004)
Each block holds one binder with its values, some of them ahead of it.

B2: clone #84 (other, UniProt Q99675 1-332, looked up)
chain: MAAVFLVTLYEYSPLFYIAVVFTCFIVTTGLVLGWFGWDVPVILRNSEETQFSTRVFKKQMRQVKNPFGLEITNPSSASITTGITLTTDCLEDSLLTCYWGCSVQKLYEALQKHVYCFRISTPQALEDALYSEYLYQEQYFIKKDSKEEIYCQLPRDTKIEDFGTVPRSRYPLVALLTLADEDDREIYDIISMVSVIHIPDRTYKLSCRILYQYLLLAQGQFHDLKQLFMSANNNFTPSNNSSSEEKNTDRSLLEKVGLSESEVEPSEENSKDCVVCQNGTVNWVLLPCRHTCLCDGCVKYFQQCPMCRQFVQESFALCSQKEQDKDKPKTL
notes: Isolated from the B-cell cDNA library with full-length RAP-2 as bait; The whole CGR19 entry is named; also called CGR19; Cell Growth Regulatory protein CGR19

Key:
[1] = target: T1, RAP-2 (RIP-associated protein-2), full-length (human, UniProt Q9Y6K9 1-419); test: binding assay tests (two-hybrid)
T1 construct: Full-length RAP-2; The RIP screen first yielded a partial clone of about 1.5 Kb; also called 303; RAP-303

NIK = NIK (UniProt Q99558 1-947); test: yeast two-hybrid test
Sequence of NIK (Q99558 whole entry): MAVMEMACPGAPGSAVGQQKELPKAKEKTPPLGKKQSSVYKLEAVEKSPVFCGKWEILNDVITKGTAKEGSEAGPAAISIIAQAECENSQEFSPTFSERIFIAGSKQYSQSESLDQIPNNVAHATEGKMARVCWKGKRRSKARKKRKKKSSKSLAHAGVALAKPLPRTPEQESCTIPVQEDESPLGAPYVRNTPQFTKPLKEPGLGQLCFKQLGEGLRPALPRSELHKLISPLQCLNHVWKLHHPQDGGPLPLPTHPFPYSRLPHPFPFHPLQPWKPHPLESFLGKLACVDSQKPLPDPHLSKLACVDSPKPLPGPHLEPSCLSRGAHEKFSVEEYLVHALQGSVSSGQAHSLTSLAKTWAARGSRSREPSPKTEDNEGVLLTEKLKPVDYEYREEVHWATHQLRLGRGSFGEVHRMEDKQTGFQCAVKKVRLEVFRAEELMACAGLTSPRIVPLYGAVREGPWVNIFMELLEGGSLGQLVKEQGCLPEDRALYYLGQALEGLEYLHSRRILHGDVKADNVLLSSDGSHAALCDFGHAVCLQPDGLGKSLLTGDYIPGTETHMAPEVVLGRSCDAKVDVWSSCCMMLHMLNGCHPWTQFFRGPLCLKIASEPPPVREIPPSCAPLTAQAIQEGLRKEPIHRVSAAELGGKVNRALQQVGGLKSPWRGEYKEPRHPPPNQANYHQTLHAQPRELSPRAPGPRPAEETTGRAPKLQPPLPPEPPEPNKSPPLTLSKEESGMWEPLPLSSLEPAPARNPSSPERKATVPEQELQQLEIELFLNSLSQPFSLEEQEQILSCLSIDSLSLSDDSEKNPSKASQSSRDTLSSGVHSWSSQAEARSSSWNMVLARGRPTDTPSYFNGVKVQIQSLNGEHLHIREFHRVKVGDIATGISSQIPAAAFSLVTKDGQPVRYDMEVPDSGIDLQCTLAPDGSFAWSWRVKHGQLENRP

[2] = target: T2, TIP60 (histone acetyltransferase) (UniProt Q92993 1-513, limits assumed); test: yeast two-hybrid test
T2 sequence (Q92993 whole entry): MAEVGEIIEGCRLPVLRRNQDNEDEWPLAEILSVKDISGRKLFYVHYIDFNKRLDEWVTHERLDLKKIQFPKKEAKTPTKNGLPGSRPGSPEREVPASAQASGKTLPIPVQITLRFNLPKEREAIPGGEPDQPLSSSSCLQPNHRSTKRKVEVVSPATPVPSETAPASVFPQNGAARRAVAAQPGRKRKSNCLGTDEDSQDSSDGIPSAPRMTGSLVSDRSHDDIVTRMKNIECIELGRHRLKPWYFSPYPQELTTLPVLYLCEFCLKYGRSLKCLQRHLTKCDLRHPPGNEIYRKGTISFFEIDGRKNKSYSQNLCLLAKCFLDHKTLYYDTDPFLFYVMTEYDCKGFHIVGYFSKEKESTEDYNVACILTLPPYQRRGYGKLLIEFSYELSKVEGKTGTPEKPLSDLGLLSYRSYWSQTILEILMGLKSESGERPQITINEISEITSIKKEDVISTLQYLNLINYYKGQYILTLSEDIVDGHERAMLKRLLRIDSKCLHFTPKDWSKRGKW

[3] = target: T3, RIP (receptor interacting protein) (human, UniProt Q13546 1-671); test: yeast two-hybrid test
T3 construct: mature; Full-length RIP was the two-hybrid bait; In co-immunoprecipitation it was pulled down with anti-FLAG mAbs (FLAG tag implied); also called RIP protein
T3 sequence (looked up): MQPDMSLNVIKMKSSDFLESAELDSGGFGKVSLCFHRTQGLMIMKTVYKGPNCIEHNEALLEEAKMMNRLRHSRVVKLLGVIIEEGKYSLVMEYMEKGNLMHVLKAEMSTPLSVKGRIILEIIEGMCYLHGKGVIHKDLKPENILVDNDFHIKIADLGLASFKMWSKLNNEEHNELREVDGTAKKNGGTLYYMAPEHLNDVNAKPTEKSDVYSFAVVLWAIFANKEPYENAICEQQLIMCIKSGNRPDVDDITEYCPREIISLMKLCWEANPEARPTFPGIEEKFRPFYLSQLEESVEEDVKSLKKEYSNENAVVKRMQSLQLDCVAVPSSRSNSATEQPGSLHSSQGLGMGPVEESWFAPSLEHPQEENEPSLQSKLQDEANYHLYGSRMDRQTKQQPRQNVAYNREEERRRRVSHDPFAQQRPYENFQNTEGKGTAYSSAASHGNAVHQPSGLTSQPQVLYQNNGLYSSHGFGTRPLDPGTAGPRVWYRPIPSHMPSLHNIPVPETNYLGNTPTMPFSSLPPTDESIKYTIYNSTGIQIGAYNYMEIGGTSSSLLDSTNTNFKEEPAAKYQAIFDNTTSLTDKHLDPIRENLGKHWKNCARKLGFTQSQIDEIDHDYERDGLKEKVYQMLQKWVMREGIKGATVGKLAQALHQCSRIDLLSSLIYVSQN

TRAF2 = target: T4, TRAF2 (UniProt Q12933 1-501, limits assumed); test: yeast two-hybrid test
T4 sequence (looked up): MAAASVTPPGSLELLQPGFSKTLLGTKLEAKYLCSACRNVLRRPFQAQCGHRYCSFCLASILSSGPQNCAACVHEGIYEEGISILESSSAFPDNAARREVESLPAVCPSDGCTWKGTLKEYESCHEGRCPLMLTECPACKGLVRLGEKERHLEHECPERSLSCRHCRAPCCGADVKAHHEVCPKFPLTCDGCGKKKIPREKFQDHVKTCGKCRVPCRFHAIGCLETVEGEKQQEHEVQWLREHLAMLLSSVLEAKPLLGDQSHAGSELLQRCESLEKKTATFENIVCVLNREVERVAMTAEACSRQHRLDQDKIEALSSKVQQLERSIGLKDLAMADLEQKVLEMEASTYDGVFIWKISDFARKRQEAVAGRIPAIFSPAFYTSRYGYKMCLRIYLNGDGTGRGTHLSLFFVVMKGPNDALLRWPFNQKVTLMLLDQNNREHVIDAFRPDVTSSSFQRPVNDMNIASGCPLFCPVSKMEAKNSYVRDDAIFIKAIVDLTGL

clone #84 = target: B2; test: yeast two-hybrid test
[4] = target: T1, RAP-2 (RIP-associated protein-2), …; test: deletion analysis, self-association of RAP-2
[5] = target: T2, TIP60 (histone acetyltransferase); test: deletion analysis of RAP-2

Binder: B2
- binding result (NIK): no binding
- binding result [2]: no binding
- binding result [3]: no binding
- binding result (TRAF2): no binding

B5: RAP-2 deletion fragment containing amino acids 1-264 (other)
chain: MNRHLWKSQLCEMVQPSGGPAADQDVLGEESPLGKPAMLHLPSEQGAPETLQRCLEENQELRDAIRQSNQILRERCEELLHFQASQREEKEFLMCKFQEARKLVERLGLEKLDLKRQKEQALREVEHLKRCQQQMAEDKASVKAQVTSLLGELQESQSRLEAATKECQALEGRARAASEQARQLESEREALQQQHSVQVDQLRMQGQSVEAALRMERQAASEEKRKLAQLQVAYHQLFQEYDNHIKSSVVGSERKRGMQLEDLK
- binding result [4]: binds

B6: RAP-2 deletion fragment spanning amino acids 95-309 (other)
chain: CKFQEARKLVERLGLEKLDLKRQKEQALREVEHLKRCQQQMAEDKASVKAQVTSLLGELQESQSRLEAATKECQALEGRARAASEQARQLESEREALQQQHSVQVDQLRMQGQSVEAALRMERQAASEEKRKLAQLQVAYHQLFQEYDNHIKSSVVGSERKRGMQLEDLKQQLQQAEEALVAKQEVIDKLKEEAEQHKIVMETVPVLKAQADIYK
- binding result [5]: no binding

B8: p75-R (p75 TNF receptor) (receptor, UniProt P20333 287-461, looked up)
chain: VKKKPLCLQREAKVPHLPADKARGTQGPEQQHLLITAPSSSSSSLESSASALDRRAPTRNQPQAPGVEASGAGEARASTGSSDSSPGGHGTQVNVTCIVNVCSSSDHSSQCSSQASSTMGDTDSSPSESPKDEQVPFSKEECAFRSQLETPETLLGSTEEKPLPLGVPDAGMKPS
- binding result [1]: no binding

Other lines, results leading:

- binding result [1]: no binding
B1: p55-R (p55 TNF receptor) (receptor, UniProt P19438 235-455, looked up)
chain: RYQRWKSKLYSIVCGKSTPEKEGELEGTTTKPLAPNPSFSPTPGFTPTLGFSPVPSSTFTSSSTYTPGDCPNFAAPRREVAPPYQGADPILATALASDPIPNPLQKWEDSAHKPQSLDTDDPATLYAVVENVPPLRWKEFVRRLGLSDHEIDRLELQNGRCLREAQYSMLATWRRRTPRREATLELLGRVLRDMDLLGCLEDIEEALCGPAALPPAPSLLR
notes: also called TNFR-I

- binding result (clone #84): no binding
- binding result [1]: no binding
B3: TRADD (other, UniProt Q15628 1-312, looked up)
chain: MAAGQNGHEEWVGSAYLFVESSLDKVVLSDAYAHPQQKVAVYRALQAALAESGGSPDVLQMLKIHRSDPQLIVQLRFCGRQPCGRFLRAYREGALRAALQRSLAAALAQHSVPLQLELRAGAERLDALLADEERCLSCILAQQPDRLRDEELAELEDALRNLKCGSGARGGDGEVASAPLQPPVPSLSEVKPPPPPPPAQTFLFQGQPVVNRPLSLKDQQTFARSVGLKWRKVGRSLQRGCRALRDPALDSLAYEYEREGLYEQAFQLLRRFVQAEGRRATLQRLVEALEENELTSLAEDLLGLTDPNGGLA

- binding result (clone #84): no binding
- binding result [1]: no binding
B4: MORT-1 (other, UniProt Q13158 1-208, looked up)
chain: MDPFLVLLHSVSSSLSSSELTELKFLCLGRVGKRKLERVQSGLDLFSMLLEQNDLEPGHTELLRELLASLRRHDLLRRVDDFEAGAAAGAAPGEEDLCAAFNVICDNVGKDWRRLARQLKVSDTKIDSIEDRYPRNLTERVRESLRIWKNTEKENATVAHLVGALRSCQMNLVADLVQEVQQARDLQNRSGAMSPMSWNSDASTSEAS
notes: also called FADD

- binding result [4]: binds
B7: RAP-2 deletion fragment containing amino acids 218-416 (other)
chain: QAASEEKRKLAQLQVAYHQLFQEYDNHIKSSVVGSERKRGMQLEDLKQQLQQAEEALVAKQEVIDKLKEEAEQHKIVMETVPVLKAQADIYKADFQAERQAREKLAEKKELLQEQLEQLQREYSKLKASCQESARIEDMRKRHVEVSQAPLPPAPAYLSSPLALPSQRRSPPEEPPDFCCPKCQYQAPDMDTLQIHVME
